Assay results: US20220289816A1, “IMMUNOTHERAPY WITH B*07 RESTRICTED PEPTIDES AND COMBINATION OF PEPTIDES AGAINST CANCERS AND RELATED METHODS” (Immatics Biotechnologies GmbH, priority 2018, published 2022)

Molecular target: HLA-B*07 (Homo sapiens, UniProt P01889)
Experiment: MHC binding assay (UV-ligand exchange, ELISA of stabilized MHC complexes)
Settings: peptide exchange yield on HLA-B*07, UV-ligand exchange
Excerpt: Candidate peptides for T cell based therapies according to the present invention were further tested for their MHC binding capacity (affinity). The individual peptide-MHC complexes were produced by UV-ligand exchange, where a UV-sensitive peptide is cleaved upon UV-irradiation and exchanged with the peptide of interest as analyzed. Only peptide candidates that can effectively bind and stabilize the peptide-receptive MHC molecules prevent dissociation of the MHC complexes. To determine the yield of the exchange reaction, an ELISA was performed based on the detection of the light chain (β2m) of stabilized MHC complexes. The assay was performed as generally described in Rodenko et al. (Rodenko et al., 2006)
96 well MAXISorp plates (NUNC) were coated over night with 2 ug/ml streptavidin in PBS at room temperature, washed 4× and blocked for 1 h at 37° C. in 2% BSA containing blocking buffer. […] Peptide-MHC monomers of the UV-exchange reaction were diluted 100-fold in blocking buffer. Samples were incubated for 1 h at 37° C., washed four times, incubated with 2 ug/ml HRP conjugated anti-[…] for 1 h at 37° C., washed again and detected with TMB solution that is stopped with […]. Absorption was measured at 450 nm. Candidate peptides that show a high exchange yield (preferably higher than 50%, most preferred higher than 75%) are generally preferred for a generation and production of antibodies or fragments thereof, and/or T cell receptors or fragments thereof, as they show sufficient avidity to the MHC molecules and prevent dissociation of the MHC complexes.

Row | Peptide exchange | Substance
1 | +++ (>50 = +++) | 2 (VPGSDPARYEFL; listed as Homo sapiens) [compound 2]
2 | ++++ (>75% = ++++) | 453 (APALPGQVTI; listed as Homo sapiens) [compound 453]
3 | ++++ (>75% = ++++) | 65 (FPNVYSTLVL; listed as Homo sapiens) [compound 65]
4 | +++ (>50 = +++) | 348 (HPAPPVTSA; listed as Homo sapiens) [compound 348]
5 | ++++ (>75% = ++++) | 281 (NPRSPPATM; listed as Homo sapiens) [compound 281]
6 | ++++ (>75% = ++++) | 372 (SPSSASLTL; listed as Homo sapiens) [compound 372]
7 | ++ (>20% = ++) | 83 (AVSSHHNVI; listed as Homo sapiens) [compound 83]
8 | +++ (>50 = +++) | 209 (KIEQIRAVL; listed as Homo sapiens) [compound 209]
9 | ++++ (>75% = ++++) | 67 (VPVSRPVL; listed as Homo sapiens) [compound 67]
10 | ++ (>20% = ++) | 243 (MARTGGMVVI; listed as Homo sapiens) [compound 243]
11 | ++++ (>75% = ++++) | 467 (VPRNQDWLGVSRQL; listed as Homo sapiens) [compound 467]
12 | +++ (>50 = +++) | 211 (IPDTIASVL; listed as Homo sapiens) [compound 211]
13 | +++ (>50 = +++) | 300 (HPYSDLADVF; listed as Homo sapiens) [compound 300]
14 | ++++ (>75% = ++++) | 231 (SPITLQAL; listed as Homo sapiens) [compound 231]
15 | +++ (>50 = +++) | 182 (RPLPVSPARAL; listed as Homo sapiens) [compound 182]
16 | ++ (>20% = ++) | 268 (EPLSVTASY; listed as Homo sapiens) [compound 268]
17 | ++++ (>75% = ++++) | 176 (QPLDICHSF; listed as Homo sapiens) [compound 176]
18 | +++ (>50 = +++) | 333 (SVLPRALSL; listed as Homo sapiens) [compound 333]
19 | ++++ (>75% = ++++) | 189 (QPQCSTHIL; listed as Homo sapiens) [compound 189]
20 | ++++ (>75% = ++++) | 382 (RPGPQRTTSV; listed as Homo sapiens) [compound 382]
21 | ++ (>20% = ++) | 160 (IPVSHPVLTF; listed as Homo sapiens) [compound 160]
22 | ++ (>20% = ++) | 269 (FTVSSSSAM; listed as Homo sapiens) [compound 269]
23 | +++ (>50 = +++) | 321 (QPQQPGFFL; listed as Homo sapiens) [compound 321]
24 | ++++ (>75% = ++++) | 42 (APLKMLAL; listed as Homo sapiens) [compound 42]
25 | ++++ (>75% = ++++) | 468 (LPSLHVLVL; listed as Homo sapiens) [compound 468]

Row | Peptide exchange | Substance
26 | ++++ (>75% = ++++) | 452 (QPVKKNTL; listed as Homo sapiens) [compound 452]
27 | ++++ (>75% = ++++) | 355 (APKTSFIAA; listed as Homo sapiens) [compound 355]
28 | ++++ (>75% = ++++) | 337 (IPTSRVITL; listed as Homo sapiens) [compound 337]
29 | +++ (>50 = +++) | 288 (LHAMNSLSAM; listed as Homo sapiens) [compound 288]
30 | ++ (>20% = ++) | 215 (IPVAIKEL; listed as Homo sapiens) [compound 215]
31 | ++ (>20% = ++) | 102 (MAGPAIHTAPM; listed as Homo sapiens) [compound 102]
32 | ++++ (>75% = ++++) | 460 (APLMPLGKTL; listed as Homo sapiens) [compound 460]
33 | ++++ (>75% = ++++) | 98 (FPCSALLACF; listed as Homo sapiens) [compound 98]
34 | ++++ (>75% = ++++) | 70 (VPAQRLGLL; listed as Homo sapiens) [compound 70]
35 | +++ (>50 = +++) | 196 (RPSGTAGAAL; listed as Homo sapiens) [compound 196]
36 | ++ (>20% = ++) | 95 (RTKEEINEL; listed as Homo sapiens) [compound 95]
37 | +++ (>50 = +++) | 345 (SAAPPGASL; listed as Homo sapiens) [compound 345]
38 | ++++ (>75% = ++++) | 461 (MPHLGPGILL; listed as Homo sapiens) [compound 461]
39 | ++++ (>75% = ++++) | 454 (SPDPAHLESL; listed as Homo sapiens) [compound 454]
40 | ++++ (>75% = ++++) | 451 (VPILPLNHAL; listed as Homo sapiens) [compound 451]
41 | +++ (>50 = +++) | 272 (SSPRGTTSTL; listed as Homo sapiens) [compound 272]
42 | ++++ (>75% = ++++) | 344 (VPYPSPTCV; listed as Homo sapiens) [compound 344]
43 | ++ (>20% = ++) | 210 (IPENRVVSY; listed as Homo sapiens) [compound 210]
44 | +++ (>50 = +++) | 120 (TVRPKNAAL; listed as Homo sapiens) [compound 120]
45 | ++ (>20% = ++) | 314 (IALMKLAGPL; listed as Homo sapiens) [compound 314]
46 | ++++ (>75% = ++++) | 380 (SPYPGSAAF; listed as Homo sapiens) [compound 380]
47 | ++++ (>75% = ++++) | 260 (LVQSSRSEV; listed as Homo sapiens) [compound 260]
48 | +++ (>50 = +++) | 104 (RPLPNSVIHV; listed as Homo sapiens) [compound 104]
49 | +++ (>50 = +++) | 85 (MPMQDIKMILKM; listed as Homo sapiens) [compound 85]
50 | ++++ (>75% = ++++) | 99 (MPVSAFTVI; listed as Homo sapiens) [compound 99]

Row | Peptide exchange | Substance
51 | ++++ (>75% = ++++) | 110 (YPSSPASAV; listed as Homo sapiens) [compound 110]
52 | ++++ (>75% = ++++) | 44 (SPSQTVQRAV; listed as Homo sapiens) [compound 44]
53 | +++ (>50 = +++) | 131 (MPFRNIRSIL; listed as Homo sapiens) [compound 131]
54 | ++++ (>75% = ++++) | 369 (RPYGCVLRAA; listed as Homo sapiens) [compound 369]
55 | ++ (>20% = ++) | 471 (LPLLAGTLLL; listed as Homo sapiens) [compound 471]
56 | +++ (>50 = +++) | 316 (NPREPEKSL; listed as Homo sapiens) [compound 316]
57 | + (>10% = +) | 222 (MLKTTLTAF; listed as Homo sapiens) [compound 222]
58 | ++++ (>75% = ++++) | 319 (RPLDTFRVL; listed as Homo sapiens) [compound 319]
59 | ++++ (>75% = ++++) | 238 (LPRAGGAFLM; listed as Homo sapiens) [compound 238]
60 | ++++ (>75% = ++++) | 299 (SPFSGGPVSF; listed as Homo sapiens) [compound 299]
61 | +++ (>50 = +++) | 358 (APSMLRKNQL; listed as Homo sapiens) [compound 358]
62 | ++++ (>75% = ++++) | 347 (SPLEKINSF; listed as Homo sapiens) [compound 347]
63 | ++ (>20% = ++) | 223 (KAHVRIEL; listed as Homo sapiens) [compound 223]
64 | ++ (>20% = ++) | 197 (RPSGTAGAALLA; listed as Homo sapiens) [compound 197]
65 | ++++ (>75% = ++++) | 22 (LPQLKPAL; listed as Homo sapiens) [compound 22]
66 | ++ (>20% = ++) | 250 (APAAPAAVPS; listed as Homo sapiens) [compound 250]
67 | +++ (>50 = +++) | 123 (RPRLRDLPAL; listed as Homo sapiens) [compound 123]
68 | +++ (>50 = +++) | 274 (KPIRTGISPLAL; listed as Homo sapiens) [compound 274]
69 | +++ (>50 = +++) | 236 (TPELKSSIL; listed as Homo sapiens) [compound 236]
70 | + (>10% = +) | 127 (KSKQVITLL; listed as Homo sapiens) [compound 127]
71 | +++ (>50 = +++) | 285 (RITWKGLLL; listed as Homo sapiens) [compound 285]
72 | ++++ (>75% = ++++) | 465 (VPKSLPYVL; listed as Homo sapiens) [compound 465]
73 | ++++ (>75% = ++++) | 251 (MPVDSFNSM; listed as Homo sapiens) [compound 251]
74 | ++ (>20% = ++) | 370 (AAHEFGHVL; listed as Homo sapiens) [compound 370]
